Patent US20240254203A1 (ACHELOIS BIOPHARMA, published 2024)

B1: C021 (antibody, V domains shown)
VH: QVQLQESGPGLVKPSQTLSLTCTVSGGSISSGGYYWSWIRQHPGKGLEWIGYIYYSGSTYYNPSLKSRVTISVDTSKNQFSLKLSSVTAADTAVYYCARVWQYYDSSGSFDYWGQGTLVTVSS
VL: not shown
B2: 0304-4A10 (antibody, V domains shown)
VH: EVQLVESGGGLVQPGGSLRLSCAASGFTFSTYAMHWVRQAPGKGLEYVSGISSNGGSTYYANSVKGRFTISRDNSKNTLYIQMGSLRAEDMAVYYCARSSSRGFDYWGQGTLVTVSS
VL: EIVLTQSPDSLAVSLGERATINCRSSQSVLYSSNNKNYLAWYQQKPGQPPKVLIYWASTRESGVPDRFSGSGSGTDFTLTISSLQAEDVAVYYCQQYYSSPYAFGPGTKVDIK
B3: 2M-10B11 (antibody, V domains shown)
VH: EVQLVESGGGLVQPGGSLRLSCAASGFTVSSNYMSWVRQAPGKGLEWVSVIYSGGSTYYADSVKGRFTISRDNSKNTLYLQMNSLRAEDTAVYYCARATWLRGVMDVWGQGTTVTVSS
VL: QSALTQPHSVSESPGKTVTISCTGSSGSIASNYVQWYQQRPGSAPTTVIYEDNQRPSGVPDRFSGSIDSSSNSASLTISGLKTEDEADYYCQSYDSSNHWVFGGGTKLTVL
B4: 9A1 (antibody, V domains shown)
VH: EVQLLESGGGVVQPGRSLRLSCVVSGFTFNNYGMHWVRQAPGKGLEWVAVISYEGSVKYYGDHVDGRFTISRDPFKNTLYLHMNNLRPDDTAVYYCAKVSAIFWLGQGLSPIDVWGQGTTVTVSS
VL: DIVMTQSPATLSASPGERVTLSCRASQNIRNNLAWYQQKPGQAPRLLIHGASTRAAGAPARFSGSGSDTQFTLTVSSLQSEDFAVYYCHQYSKWPVTFGGGTKVDIK
B5: C018 (antibody, V domains shown)
VH: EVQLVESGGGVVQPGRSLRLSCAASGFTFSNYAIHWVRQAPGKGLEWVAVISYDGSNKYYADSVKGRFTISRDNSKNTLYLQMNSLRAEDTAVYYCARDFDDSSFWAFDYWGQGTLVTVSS
VL: DIQLTQSPSSLSASVGDRVTITCRASQSIRSYLNWYQQKPGKAPKLLIYAASSLQSGVPSRFSGSGSGTDFTLTISSLQPDDFATYYCQQSYSTPPATFGQGTKLEIK
B6: 2M-14E5 (antibody, V domains shown)
VH: EVQLVESGGGVVQPGRSLRLSCAASGFTFSTYSMHWVRQAPGKGLEWVAVISYDGSNKYYADSVKGRFTISRDNSKNTLYLQVNSLRAEDTAVYYCARSGGGSYRGPFDYWGQGTLVTVSS
VL: AIRMTQSPSFLSVSVGDRVTITCRASQGISSYLAWYQQKPGKAPKLLIYAASTLQSGVPSRFSGSGSGTEFTLTISSLQPEDFATYYCQQLNSYVTFGGGTKVEIK

Assays:
[1] = molecular target: T1, SARS CoV-2 spike protein (antigen of the mAb binding affinity values) (SARS CoV-2, UniProt P0DTC2 14-1213); assay: assay not described; mAb; binding locale Spike RBD
[2] = molecular target: T1, SARS CoV-2 spike protein (antigen of …); assay: assay not described; mAb; binding locale Spike S2

Binder | mAb Binding Affinity [1] | mAb Binding Affinity [2]
B1 | 1.25 ng/mL | 
B2 |  | 3 ng/mL
B3 | 5 ng/mL | 
B4 |  | 5 ng/mL
B5 | 1.53 ng/mL | 
B6 |  | 7 ng/mL
